This assay addresses T1, complement C5a receptor (mouse (endogenous in Peyer's patch LysoDCs)) (UniProt P30993).
T1 sequence: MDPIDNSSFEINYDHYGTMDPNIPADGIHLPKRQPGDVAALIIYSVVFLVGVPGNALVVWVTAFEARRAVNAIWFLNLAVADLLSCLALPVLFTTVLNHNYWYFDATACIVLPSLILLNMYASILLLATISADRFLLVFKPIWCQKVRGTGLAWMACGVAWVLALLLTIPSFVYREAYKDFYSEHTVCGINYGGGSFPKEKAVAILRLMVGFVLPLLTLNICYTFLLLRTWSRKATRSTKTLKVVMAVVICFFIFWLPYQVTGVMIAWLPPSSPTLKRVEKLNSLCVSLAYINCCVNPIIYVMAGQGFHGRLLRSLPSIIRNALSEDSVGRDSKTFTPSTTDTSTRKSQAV

The record followed here is article PMC10425327.

In the case of SFHQLPARSPLP [Co1 peptide], the CCL2 (MCP-1) in the culture supernatant of C5aR+ LysoDCs treated with Co1 peptide (10 uM, 24 h), against untreated C5aR+ LysoDCs and Co1-treated C5aR- LysoDCs was more than 2 fold; the CCL3 (MIP-1alpha) in the culture supernatant of C5aR+ LysoDCs treated with Co1 peptide (10 uM, 24 h), against untreated C5aR+ LysoDCs and Co1-treated C5aR- LysoDCs was more than 2 fold.
